B1: ADP339 (protein)
chain: MASPFLVLAIGTCLTNSLVPEKEKDPKYWRDQAQETLKYALELQKLNTNVAKNVIMFLGDGMGVSTVTAARILKGQLHHNPGEETRLEMDKFPFVALSKTYNTNAQVPDSAGTATAYLCGVKANEGTVGVSAATERSRCNTTQGNEVTSILRWAKDAGKSVGIVTTTRVNHATPSAAYAHSADRDWYSDNEMPPEALSQGCKDIAYQLMHNIRDIDVIMGGGRKYMYPKNKTDVEYESDEKARGTRLDGLDLVDTWKSFKPRYKHSHFIWNRTELLTLDPHNVDYLLGLFEPGDMQYELNRNNVTDPSLSEMVVVAIQILRKNPKGFFLLVEGGRIDHGHHEGKAKQALHEAVEMDRAIGQAGSLTSSEDTLTVVTADHSHVFTFGGYTPRGNSIFGLAPMLSDTDKKPFTAILYGNGPGYKVVGGERENVSMVDYAHNNYQAQSAVPLRHETHGGEDVAVFSKGPMAHLLHGVHEQNYVPHVMAYAACIGANLGHCAPASS
modifications: bait human Fc-tagged dimer
B2: ADP144 (protein)
chain: MELRARGWWLLCAAAALVACARGDPASKSRSCGEVRQIYGAKGFSLSDVPQAEISGEHLRICPQGYTCCTSEMEENLANRSHAELETALRDSSRVLQAMLATQLRSFDDHFQHLLNDSERTLQATFPGAFGELYTQNARAFRDLYSELRLYYRGANLHLEETLAEFWARLLERLFKQLHPQLLLPDDYLDCLGKQAEALRPFGEAPRELRLRATRAFVAARSFVQGLGVASDVVRKVAQVPLGPECSRAVMKLVYCAHCLGVPGARPCPDYCRNVLKGCLANQADLDAEWRNLLDSMVLITDKFWGTSGVESVIGSVHTWLAEAINALQDNRDTLTAKVIQGCGNPKVNPQGPGPEEKRRRGKLAPRERPPSGTLEKLVSEAKAQLRDVQDFWISLPGTLCSEKMALSTASDDRCWNGMARGRYLPEVMGDGLANQINNPEVEVDITKPDMTIRQQIMQLKIMTNRLRSAYNGNDVDFQDASDDGSGSGSGDGCLDDLCSRKVSRKSSSSRTPLTHALPGLSEQEGQKTSAAS
modifications: bait human Fc-tagged dimer
B3: ADP280 (protein)
chain: TPPNAIVFTYGHLKVADMVKTGVIMNIIGVFCVFLAVNTWGRAIFDLDHFPDWANVTHIET
modifications: also: human Fc-tagged dimer
B4: ADP098 (protein)
chain: RELPAQKWWHTGALYRIGDLQAFQGHGAGNLAGLKGRLDYLSSLKVKGLVLGPIHKNQKDDVAQTDLLQIDPNFGSKEDFDSLLQSAKKKSIRVILDLTPNYRGENSWFSTQVDTVATKVKDALEFWLQAGVDGFQVRDIENLKDASSFLAEWQNITKGFSEDRLLIAGTNSSDLQQILSLLESNKDLLLTSSYLSDSGSTGEHTKSLVTQYLNATGNRWCSWSLSQARLLTSFLPAQLLRLYQLMLFTLPGTPVFSYGDEIGLDAAALPGQPMEAPVMLWDESSFPDIPGAVSANMTVKGQSEDPGSLLSLFRRLSDQRSKERSLLHGDFHAFSAGPGLFSYIRHWDQNERFLVVLNFGDVGLSAGLQASDLPASASLPAKADLLLSTQPGREEGSPLELERLKLEPHEGLLLRFPYAA
modifications: bait human Fc-tagged dimer
B5: ADP116 (protein)
chain: MVTLQTWLVQALFIFLTTESTGELLDPCGYISPESPVVQLHSNFTAVCVLKEKCMDYFHVNANYIVWKTNHFTIPKEQYTIINRTASSVTFTDIASLNIQLTCNILTFGQLEQNVYGITIISGLPPEKPKNLSCIVNEGKKMRCEWDGGRETHLETNFTLKSEWATHKFADCKAKRDTPTSCTVDYSTVYFVNIEVWVEAENALGKVTSDHINFDPVYKVKPNPPHNLSVINSEELSSILKLTWTNPSIKSVIILKYNIQYRTKDASTWSQIPPEDTASTRSSFTVQDLKPFTEYVFRIRCMKEDGKGYWSDWSEEASGITYEDRPSKAPSFWYKIDPSHTQGYRTVQLVWKTLPPFEANGKILDYEVTLTRWKSHLQNYTVNATKLTVNLTNDRYLATLTVRNLVGKSDAAVLTIPACDFQATHPVMDLKAFPKDNMLWVEWTTPRESVKKYILEWCVLSDKAPCITDWQQEDGTVHRTYLRGNLAESKCYLITVTPVYADGPGSPESIKAYLKQAPPSKGPTVRTKKVGKNEAVLEWDQLPVDVQNGFIRNYTIFYRTIIGNETAVNVDSSHTEYTLSSLTSDTLYMVRMAAYTDEGGKDGPEFTFTTPKFAQGEIE
modifications: bait human Fc-tagged dimer
B6: ADP106 (protein)
chain: MAGGRCGPQLTALLAAWIAAVAATAGPEEAALPPEQSRVQPMTASNWTLVMEGEWMLKFYAPWCPSCQQTDSEWEAFAKNGEILQISVGKVDVIQEPGLSGRFFVTTLPAFFHAKDGIFRRYRGPGIFEDLQNYILEKKWQSVEPLTGWKSPASLTMSGMAGLFSISGKIWHLHNYFTVTLGIP
modifications: bait human Fc-tagged dimer
B7: ADP107 (protein)
chain: MGTKAQVERKLLCLFILAILLCSLALGSVTVHSSEPEVRIPENNPVKLSCAYSGFSSPRVEWKFDQGDTTRLVCYNNKITASYEDRVTFLPTGITFKSVTREDTGTYTCMVSEEGGNSYGEVKVKLIVLVPPSKPTVNIPSSATIGNRAVLTCSEQDGSPPSEYTWFKDGIVMPTNPKSTRAFSNSSYVLNPTTGELVFDPLSASDTGEYSCEARNGYGTPMTSNAVRMEAVERNVGV
modifications: bait human Fc-tagged dimer
B8: ADP318 (protein)
chain: MAGRLWPLLLSILTATAVPGPSLRRPSRELDATPRMTIPYEELSGTRHFKGQAQNYSTLLLEEASARLLVGARGALFSLSANDIGDGAHKEIHWEASPEMQSKCHQKGKNNQTECFNHVRFLQRLNSTHLYACGTHAFQPLCAAIDAEAFTLPTSFEEGKEKCPYDPARGFTGLIIDGGLYTATRYEFRSIPDIRRSRHPHSLRTEETPMHWLNDAEFVFSVLVRESKASAVGDDDKVYYFFTERATEEGSGSFTQSRSSHRVARVARVCKGDLGGKKILQKKWTSFLKARLICHIPLYETLRGVCSLDAETSSRTHFYAAFTLSTQWKTLEASAICRYDLAEIQAVFAGPYMEYQDGSRRWGRYEGGVPEPRPGSCITDSLRSQGYNSSQDLPSLVLDFVKLHPLMARPVVPTRGRPLLLKRNIRYTHLTGTPVTTPAGPTYDLLFLGTADGWIHKAVVLGSGMHIIEETQVFRESQSVENLVISLLQHSLYVGAPSGVIQLPLSSCSRYRSCYDCILARDPYCGWDPGTHACAAATTIANRTALIQDIERGNRGCESSRDTGPPPPLKTRSVLRGDDVLLPCDQPSNLARALWLLNGSMGLSDGQGGYRVGVDGLLVTDAQPEHSGNYGCYAEENGLRTLLASYSLTVRPATPAPAPKAPATPGAQLAPDVRL
modifications: bait human Fc-tagged dimer
B9: ADP370 (protein)
chain: MICQKFCVVLLHWEFIYVITAFNLSYPITPWRFKLSCMPPNSTYDYFLLPAGLSKNTSNSNGHYETAVEPKFNSSGTHFSNLSKTTFHCCFRSEQDRNCSLCADNIEGKTFVSTVNSLVFQQIDANWNIQCWLKGDLKLFICYVESLFKNLFRNYNYKVHLLYVLPEVLEDSPLVPQKGSFQMVHCNCSVHECCECLVPVPTAKLNDTLLMCLKITSGGVIFQSPLMSVQPINMVKPDPPLGLHMEITDDGNLKISWSSPPLVPFPLQYQVKYSENSTTVIREADKIVSATSLLVDSILPGSSYEVQVRGKRLDGPGIWSDWSTPRVFTTQDVIYFPPKILTSVGSNVSFHCIYKKENKIVPSKEIVWWMNLAEKIPQSQYDVVSDHVSKVTFFNLNETKPRGKFTYDAVYCCNEHECHHRYAELYVIDVNINISCETDGYLTKMTCRWSTSTIQSLAESTLQLRYHRSSLYCSDIPSIHPISEPKDCYLQSDGFYECIFQPIFLLSGYTMWIRINHSLGSLDSPPTCVLPDSVVKPLPPSSVKAEITINIGLLKISWEKPVFPENNLQFQIRYGLSGKEVQWKMYEVYDAKSKSVSLPVPDLCAVYAVQVRCKRLDGLGYWSNWSNPAYTVVMDIKVPMRGPEFWRIINGDTMKKEKNVTLLWKPLMKNDSLCSVQRYVINHHTSCNGTWSEDVGNHTKFTFLWTEQAHTVTVLAINSIGASVANFNLTFSWPMSKVNIVQSLSAYPLNSSCVIVSWILSPSDYKLMYFIIEWKNLNEDGEIKWLRISSSVKKYYIHDHFIPIEKYQFSLYPIFMEGVGKPKIINSFTQDDIEKHQSDA
modifications: bait human Fc-tagged dimer
B10: ADP307 (protein)
chain: MALSVPLLLGLLGLAVAEPAVYFKEQFLDGDGWTSRWIESKHKSDFGKFVLSSGKFYGDEEKDKGLQTSQDARFYALSASFEPFSNKGQTLVVQFTVKHEQNIDCGGGYVKLFPNSLDQTDMHGDSEYNIMFGPDICGPGTKKVHVIFNYKGKNVLINKDIRCKDDEFTHLYTLIVRPDNTYEVKIDNSQVESGSLEDDWDFLPPKKIKDPDASKPEDWDERAKIDDPTDSKPEDWDKPEHIPDPDAKKPEDWDEEMDGEWEPPVIQNPEYKGEWKPRQIDNPDYKGTWIHPEIDNPEYSPDPSIYAYDNFGVLGLDLWQVKSGTIFDNFLITNDEAYAEEFGNETWGVTKAAEKQMKDKQDEEQRLKEEEEDKKRKEEEEAEDKEDDEDKDEDEEDEEDKEEDEEEDVPGQAKDEL
modifications: bait human Fc-tagged dimer
B11: ADP380 (protein)
chain: VLEEVQQVRRSHQDFSRQREELGQGLQGVEQKVQSLQATFGTFESILRSSQHKQDLTEKAVKQGESEVSRISEVLQKLQNEILKDLSDGIHVVKDARERDFTSLENTVEERLTELTKSINDNIAIFTEVQKRSQKEINDMKAKVASLEESEGNKQDLKALKEAVKEIQTSAKSREWDMEALRSTLQTMESDIYTEVRELVSLKQEQQAFKEAADTERLALQALTEKLLRSEESVSRLPEEIRRLEEELRQLKSDSHGPKEDGGFRHSEAFEALQQKSQGLDSRLQHVEDGVLSMQVASARQTESLESLLSKSQEHEQRLAALQGRLEGLGSSEADQDGLASTVRSLGETQLVLYGDVEELKRSVGELPSTVESLQKVQEQVHTLLSQDQAQAARLPPQDFLDRLSSLDNLKASVSQVEADLKMLRTAVDSLVAYSVKIETNENNLESAKGLLDDLRNDLDRLFVKVEKIHEKV
modifications: bait human Fc-tagged dimer
B12: ADP385 (protein)
chain: TIKANSEACRDGLRAVMECRNVTHLLQQELTEAQKGFQDVEAQAATCNHTVMALMASLDAEKAQGQKKVEELEGEITTLNHKLQDASAEVERLRRENQVLSVRIADKKYYPSSQDSSSAAAPQLLIVLLGLSALLQ
modifications: bait human Fc-tagged dimer
B13: ADP373 (protein)
chain: MAKASCLPLGFIVFLPAVLLLVAPPLPAADAAHEFTVYRMQQYDLQGQPYGTRNAVLNTEARTMAAEVLSRRCVLMRLLDFSYEQYQKALRQSAGAVVIILPRAMAAVPQDVVRQFMEIEPEMLAMETAVPVYFAVEDEALLSIYKQTQAASASQGSASAAEVLLRTATANGFQMVTSGVQSKAVSDWLIASVEGRLTGLGGEDLPTIVIVAHYDAFGVAPWLSLGADSNGSGVSVLLELARLFSRLYTYKRTHAAYNLLFFASGGGKFNYQGTKRWLEDNLDHTDSSLLQDNVAFVLCLDTVGRGSSLHLHVSKPPREGTLQHAFLRELETVAAHQFPEVRFSMVHKRINLAEDVLAWEHERFAIRRLPAFTLSHLESHRDGQRSSIMDVRSRVDSKTLTRNTRIIAEALTRVIYNLTEKGTPPDMPVFTEQMQIQQEQLDSVMDWLTNQPRAAQLVDKDSTFLSTLEHHLSRYLKDVKQHHVKADKRDPEFVFYDQLKQVMNAYRVKP
modifications: bait human Fc-tagged dimer

This note sets out measurements from publication PMC11098746 (2024).

For the assay, the target named is Circumsporozoite protein (CSP) (Plasmodium falciparum (isolate 3D7), UniProt Q7K740). In words: AVEXIS screen signal:noise (double-corrected).
Chain of Circumsporozoite protein (CSP) (Q7K740 19-374): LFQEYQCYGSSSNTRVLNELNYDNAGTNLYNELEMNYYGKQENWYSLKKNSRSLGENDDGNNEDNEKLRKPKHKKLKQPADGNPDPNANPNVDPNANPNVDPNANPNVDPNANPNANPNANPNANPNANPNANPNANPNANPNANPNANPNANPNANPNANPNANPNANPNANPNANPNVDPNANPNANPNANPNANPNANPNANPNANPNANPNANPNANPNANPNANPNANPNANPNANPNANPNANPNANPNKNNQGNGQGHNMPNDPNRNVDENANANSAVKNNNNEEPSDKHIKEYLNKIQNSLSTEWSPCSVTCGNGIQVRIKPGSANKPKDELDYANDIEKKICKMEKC
Consider B1, for which the binding score was determined as 1.02.

On to B2, for which the binding score is 0.883.

B3 showed a binding score of 0.749.

As to B4, the binding score is 1.12.

In the case of B5, the binding score came to 1.88.

For B6, the binding score worked out at 1.3.

With B7, the binding score was 0.991.

Take B8: the binding score turned out to be 3.59.

Consider B9, for which the binding score worked out at 1.01.

B10 came in with a binding score of 1.67.

In turn, B11 had a binding score of 0.68.

Regarding B12, the binding score came to 0.643.

With B13, the binding score amounted to 1.26.
